The values below come from patent CN109734806A (ANHUI ANKE BIOTECHNOLOGY GROUP CO LTD, dated 2019).

Experiment [1] addresses T1, rhTIGIT-Avi-His (human, UniProt Q495A1 22-130).
T1 construct: range 22-130; Expressed in Expi 293 cells, Ni-NTA purified; also called rhTIGIT-Avi-His抗原; not shown: C-terminal Avi tag and His tag from vector pCD-Avi-His
T1 sequence (looked up): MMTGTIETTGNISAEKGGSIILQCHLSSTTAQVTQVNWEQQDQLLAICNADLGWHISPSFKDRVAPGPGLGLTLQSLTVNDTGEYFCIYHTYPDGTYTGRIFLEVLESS
As to the kind of experiment: ELISA, rhTIGIT-Avi-His coated at 0.5 ug/mL, antibody titrated. For orientation: An ELISA detects its analyte on a solid surface through an enzyme-linked reagent.

Experiment [2] deals with T2, 人TIGIT (膜表达人TIGIT稳转细胞株DG44-TIGIT) (human, UniProt Q495A1 22-244).
T2 construct: whole, on cells; also called 细胞表面的TIGIT蛋白; huTIGIT
T2 sequence (looked up): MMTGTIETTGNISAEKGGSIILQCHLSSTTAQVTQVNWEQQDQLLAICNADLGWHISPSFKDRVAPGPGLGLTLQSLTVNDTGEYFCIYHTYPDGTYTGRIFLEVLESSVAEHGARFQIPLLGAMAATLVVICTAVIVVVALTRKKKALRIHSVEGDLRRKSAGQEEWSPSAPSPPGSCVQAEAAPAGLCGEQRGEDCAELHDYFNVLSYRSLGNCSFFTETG
As to the kind of experiment: FACS blocking on DG44-TIGIT cells, competitor rhCD155-cFc-647 (1 ug/ml).

Experiment [3] deals with T2, 人TIGIT (膜表达人TIGIT稳转细胞株DG44-TIGIT). The experiment can be described thus: FACS binding to DG44-TIGIT cells.
Experiment [4] concerns the target T3, rhTIGIT-Avi-His-bio (human, UniProt Q495A1 22-130, biotin linked to the Avi tag by BirA).
T3 construct: range 22-130; Biotinylated form of rhTIGIT-Avi-His, captured on SA chip for SPR; also called 生物素标记的抗原rhTIGIT-Avi-His-bio; not shown: C-terminal Avi tag (biotinylated) and His tag from vector pCD-Avi-His
T3 sequence (looked up): T1 sequence (looked up)
As to the kind of experiment: SPR (Biacore T200), rhTIGIT-Avi-His-bio captured on SA chip, antibody as analyte. (Surface plasmon resonance follows binding to a sensor surface in real time, without labels.)

Experiment [5] has as its target T3, rhTIGIT-Avi-His-bio. As to the kind of experiment: SPR, KD of D1Y1A against KD of 3TB3.
The target of experiment [6] is T1, rhTIGIT-Avi-His. The experiment can be described thus: ELISA on coated rhTIGIT-Avi-His.

B1: TDC8 (antibody, V domains shown)
VH: DVQLQESGPGLVKPSETLSLTCTVSGGSISSKGFTWSWIRQPPGKGLEWIGQISPLDSSTSYNPSLKSRVTISVDTSKNQFSLKLSSVTAADTSVYYCARGIWTYLYGFDYWGQGTLVTVSS
VL: DIVLTQSPATLSLSPGERATLSCRASQSIHAGYLAWYQQKPGQAPRLLIYWTNLRATGVPTRFSGSGSGTDFTLTISSLEPEDFAVYYCLQLMRYPPTFGQGTKLEIKR
notes: also called 全人源抗人TIGIT单抗TDC8
Consider B1, for which the concentration for a half-maximal effect (EC50) (usually the midpoint of the concentration-response curve) is 0.293 µg/mL in the experiment with rhTIGIT-Avi-His [1] and 0.0585 µg/mL in experiment [3]. The IC50 (as a rule, the point on the concentration scale where inhibition reaches its midpoint) in experiment [2] came to 0.308 µg/mL.

B2: 5TB10 (antibody, V domains shown)
VH: DVQLQESGPGLVKPSETLSLTCTVSGDSVSDAGVGWNWIRQPPGKGLEWIGTIVPRRGITTYNPSLKSRVTISVDTSKNQFSLKLSSVTAADTSVYYCARVTTAGFDYWGQGTLVTVSS
VL: DIVLTQSPATLSLSPGERATLSCRASQDVKILLNWYQQKPGQAPRLLIYWTSDRATGVPTRFSGSGSGTDFTLTISSLEPEDFAVYYCQQHLDRLPYTFGQGTKLEIKR
notes: also called 全人源抗人TIGIT单抗5TB10
For the molecule B2, the EC50 with rhTIGIT-Avi-His [1] worked out at 0.754 µg/mL; in experiment [3], 0.0872 µg/mL. Besides, the concentration for half-maximal inhibition (IC50) in experiment [2] was 0.435 µg/mL.

B3: D1Y1A (antibody, V domains shown)
VH: DVQLQESGPGLVKPSETLSLTCTVSGGSISYWSWIRQPPGKGLEWIGSIATSYNPSLKSRTSVDTSKNQFSLKLSSVTAADTAVYYCARSYGGNRLDYWGQGTLVTVSS
VL: DIVLTQSPATLSLSPGERATLSCRASQGVRLSWYQQKPGQAPRLLIYYYRATGVPARFSGSGSGTDFTLTISSLEPEDFAVYYCLQFPTFGQGTKLEIK
Regarding B3, the Kd – broadly, a measure of binding affinity in units of concentration – in the experiment with rhTIGIT-Avi-His-bio [4] came to 0.266 nM. Moreover, in the experiment with rhTIGIT-Avi-His-bio [5], the “fold improvement of affinity against 3TB3” value is around 4 fold. Moreover, the “fold improvement against 3TB3 (ELISA)” value with rhTIGIT-Avi-His [6] is around 3 fold.

B4: 3TB3 (antibody, V domains shown)
VH: DVQLQESGPGLVKPSETLSLTCTVSGGSISGGYSWSWIRQPPGKGLEWIGSIVPHRSATSYNPSLKSRVTISVDTSKNQFSLKLSSVTAADTSVYYCARSYGGNRLDYWGQGTLVTVSS
VL: DIVLTQSPATLSLSPGERATLSCRASQGVGIRLSWYQQKPGQAPRLLIYYTAYRATGVPTRFSGSGSGTDFTLTISSLEPEDFAVYYCLQTFGDPYTFGQGTKLEIKR
notes: Parent of D1Y1A; also called 全人源抗人TIGIT单抗3TB3; 野生型3TB3
B4: binding with rhTIGIT-Avi-His-bio [4] was put at a Kd of 1.13 nM. The EC50 with rhTIGIT-Avi-His [1] came to 0.0307 µg/mL; in experiment [3], 0.0589 µg/mL. In experiment [2], this molecule came in with an IC50 of 0.212 µg/mL.

B5: TBB8 (antibody, V domains shown)
VH: DVQLQESGPGLVKPSETLSLTCTVSGYSISTGYAWSWIRQPPGKGLEWIGSISAFGGNTYYNPSLKSRVTISVDTSKNQFSLKLSSVTAADTSVYYCARTARWIAFDYWGQGTLVTVSS
VL: DIVLTQSPATLSLSPGERATLSCRASQDIGVSLNWYQQKPGQAPRLLIYWTSFRATGVPTRFSGSGSGTDFTLTISSLEPEDFAVYYCQQANGVPLFTFGQGTKLEIKR
notes: also called 全人源抗人TIGIT单抗TBB8
With B5, the concentration for a half-maximal effect (EC50) stood at 0.28 µg/mL in the experiment with rhTIGIT-Avi-His [1] and 0.096 µg/mL in experiment [3]. The molecule further yielded an IC50 in experiment [2] of 0.563 µg/mL.
